Measured values: the supplement of paper PMC9170038

What was measured:
[1] = test system: MS2 coat protein; assay: apparent KD of MS2 coat protein, switch ON state; designed switch direction (-1 OFF switch, 1 ON switch): -1; higher = weaker reporter binding; conditions: FMN input: 0 or 200 uM; Eterna round: R93 (includes R88 designs)
Summary of the method: (§1)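 The designed RNA switches were transcribed on-chip from Illumina sequencing clusters. In 100 mM Tris-HCl pH 7.5, 80 mM KCl and 4 mM MgCl2, without or with constant ligand, they were titrated with SNAP-549-labelled MS2 coat protein from 0.7 or 1.5 nM to 3 µM in twofold steps. Apparent KD is the per-design median of normalised cluster binding-curve fits.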

[2] = test system: MS2 coat protein; assay: apparent KD of MS2 coat protein, switch OFF state (with FMN for OFF switches, without FMN for ON switches); designed switch direction (-1 OFF switch, 1 ON switch): -1; higher = weaker reporter binding; conditions: FMN input: 0 or 200 uM; Eterna round: R93 (includes R88 designs)
Summary of the method: as §1

Sequence	apparent KD of MS2 coat protein [1]	apparent KD of MS2 coat protein [2]
AACAGGACAGGAUAUACAUGAGGAUCACCCAUGUAGGAACAAAGCAGAGUACCAAACAGUAGAAGGGUCAUGGA [Ruby 28]	0.0342 µM	0.0372 µM
AAAUGCUGAGGAUAUACAUGAGGAUCACCCAUGUAAAAUAAAUAAUAGGUGUAAACGUGUAGAAGGCAGCAUAA [Exclusion 3.14a (FMN+ favored )]	0.0626 µM	0.0275 µM
AAAAAGUCAGGAUAUGUCAAAGGUCACGAAAGUGACAAAGGACAGAAGGGACAUGAGGAUCACCCAUGUGGAAA [Fiskers Exclusion 4D1 65% - Late G segment 1]	0.082 µM	0.115 µM
AACAGGUCAGGAUAUGUGGAAAAAAUAAAAAAAAUAAAAACACAGAAGGGACAUGAGGAUCACCCAUGUUAACA [May 25]	0.0366 µM	0.0388 µM
AACGAGUCAGGAUAUACAAAAAGUAAAUAAGUAAAACCAAAGUAGAAGGGACAUGAGGAUCACCCAUGUAAAUA [JR_Exc004_Sub019]	0.0428 µM	0.0244 µM
AACAGGACAGGAUAUACAUGAGGAUCACCCAUGUGAAGAUUAAGAAGAAAACCACAAAGUAGAAGGGUCCUGGA [Ruby 94]	0.0351 µM	0.0792 µM
AGAGAGUCAGGAUAUACGAAAGAAAAGGGAAACAACAAGGGACAUGAGGAUCACCCAUGUAGAAGGGACGAGAA [Diamond 99]	0.0998 µM	0.0498 µM
AAAAAACAUGAGGAUCACCCAUGUAAGGAUAUGCAAAACCCAUAUAAAAAGGGAAAAAGCAGAAGGUACAAAAA [Starry Exclusion 1.1 (wbt round 1 mod)]	0.0249 µM	0.0331 µM
AAAAAACAUGAGGAUCACCCAUGUCAGGAUAUCCUAAAGAAACUCGUAAAAAGAAAUAGGAGAAGGGACAAAAA [PK4]	0.0537 µM	0.0467 µM
GAAAAACAUGAGGAUCACCCAUGUAAGGAUAUGCUAAAAAACACGGAAAAACGUGAUAGCAGAAGGUACAAAAG [Mat - Exclusion 1 - Eli mod - D88]	0.0198 µM	0.044 µM
AAGAAGUGAGGAUAUGCAAAAGAAAAGAAAAGAAAAGAAAAGCAGAAGGCACAUGAGGAUCACCCAUGUAAGAA [Petubastis III]	0.0128 µM	0.0289 µM
CAGUACUGAGGAUAUACAUGAGGAUCACCCAUGUAUCCAAGCUAGGAAACUAGCACAUGUAGAAGGCAGUACUG [Ex3: 822]	0.294 µM	0.0345 µM
GGAAAACAUGAGGAUCACCCAUGUAAGGAUAUGCAAAAAAAAAAGGAUAUAGAAGGAAGCAGAAGGUACAAAGG [salish99-ex1-28]	0.0245 µM	0.0551 µM
AACUGACAUGAGGAUCACCCAUGUCAGGAUAUGCUUCUAGGAAAAAAAAAAACUAGAUGCAGAAGGGAUAUGGA [Design 37 :P Sub-opt 13]	0.0145 µM	0.0121 µM
CUCUAGUUAGGAUAUGGAAGAAAAGAAAAGAAAGAAAAGAACCAGAAGGAACAUGAGGAUCACCCAUGUAAGAA [EteRNA is fun!]	0.0455 µM	0.034 µM
CGCAAACAUGAGGAUCACCCAUGUGAGGAUAUGUGAGCACGAGAAAGAUAAAGUGAGCACAGAAGGCACAAGCG [JR_Exclusion1_Sub6]	0.0348 µM	0.0273 µM
AGGAGACAUGAGGAUCACCCAUGUUAGGAUAUGAACGAAAAUAAAUAAAAAUAAAAGUUCAGAAGGAACGAAAA [66%, Wbt, 9]	0.0451 µM	0.0452 µM
AAGAACCAAGGAUAUACAUGAGGAUCACCCAUGUAAAAGAAAGAAAGGGAAAAGAAAAGUAGAAGGUGGAAGAA [Takelot I]	0.0281 µM	0.0328 µM
AAAAAACAUGAGGAUCACCCAUGUGAGGAUAUCCAAAAGUCAAAGAAAAAGACGAAAAGGAGAAGGCACAAAAA [Banishment 2 - Jieux - Exclusion 1]	0.0442 µM	0.0491 µM
AGCUAGUCAGGAUAUACAAACAUGUCGAAAGACGUGAAGGGACAUGAGGAUCACCCAUGUAGAAGGGACUAGCA [Mod of Janderson's WEB Mod v.2]	0.05 µM	0.273 µM
AAAAAACAUGAGGAUCACCCAUGUGAGGAUAUGCAAAAAAAAAAAAAAAAAUAAAAAAGCAGAAGGCACAAAAA [Sh'dynasty]	0.0306 µM	0.0332 µM
